Results taken from patent publication US20020082409A1.
Ends that are not written are not given here.

Tests used:
Test in all cases: cell-based or functional assay
[1] = target: recombinant CRH R2 beta expressed in 293T cells (UniProt Q13324)
[2] = target: recombinant CRH R2-alpha expressed in 293T cells (UniProt Q13324)
[3] = target: recombinant CRH R2 expressed in 293T cells (isoform not stated, Fig. 3f), Q13324
Sequence of recombinant CRH R2 expressed in 293T cells (isoform not stated, Fig. 3f), Q13324 (Q13324 20-411): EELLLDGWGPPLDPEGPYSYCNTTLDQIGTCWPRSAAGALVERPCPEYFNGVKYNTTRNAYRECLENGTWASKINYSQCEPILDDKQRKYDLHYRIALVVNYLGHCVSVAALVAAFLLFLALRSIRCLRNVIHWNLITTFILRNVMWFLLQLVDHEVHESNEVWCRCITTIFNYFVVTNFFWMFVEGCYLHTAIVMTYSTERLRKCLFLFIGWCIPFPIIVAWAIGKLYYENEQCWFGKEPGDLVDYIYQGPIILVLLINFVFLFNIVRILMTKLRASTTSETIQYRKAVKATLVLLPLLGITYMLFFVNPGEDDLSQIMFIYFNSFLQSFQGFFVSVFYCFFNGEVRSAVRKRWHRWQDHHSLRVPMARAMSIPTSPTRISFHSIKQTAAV

potency in cAMP production, compared to stresscopin 2 and the pufferfish peptide [1]	potency in cAMP production, compared to stresscopin 2 and the pufferfish peptide [2]	reduction in ability to stimulate cAMP production, against amidated stresscopin 1 [3]	Molecule
> 10 fold	> 10 fold	–	stresscopin 1 (full-length 43-amino-acid mature peptide, synthetic, amidated)
–	–	> 50 fold	HPGSRIVLSLDVILGLLQILLEQARARAAREQATTNARILARV-OH [SCP1-NA, full-length stresscopin 1 devoid of amidation at the C-terminus]
